One block for each substance: values may come before it.
How the values were obtained:
[1] = target: nucleosome (NCP) with fluorescein-labelled DNA, for fluorescence polarization (human); test: fluorescence polarisation; increasing amounts of CHD4 PHD1/2, PHD1 or PHD2 added to 5 nM nucleosomes with fluorescein-labelled DNA; 15 mM Tris pH 7.5, 75 mM NaCl, 0.00625% Tween20, 3 mM DTT; apparent
[2] = test system: CHD4 PHD1/2; test: FRET (nucleosome unwrapping); settings: 1.4 uM LexA present, FP: 15 mM Tris pH 7.5, 75 mM NaCl, 0.00625% Tween20, 3 mM DTT, 5 nM NCP, FRET: 15 mM Tris pH 7.5, 1 mM EDTA, 0.00625% Tween20, 25 nM NCP, NMR: …
[3] = test system: LexA; test: FRET (nucleosome unwrapping); settings: FP: 15 mM Tris pH 7.5, 75 mM NaCl, 0.00625% Tween20, 3 mM DTT, 5 nM NCP, FRET: 15 mM Tris pH 7.5, 1 mM EDTA, 0.00625% Tween20, 25 nM NCP, NMR: …
[4] = test system: CHD4 PHD1/2; test: fluorescence polarization; settings: 75 mM NaCl, apparent Kd, FP: 15 mM Tris pH 7.5, 75 mM NaCl, 0.00625% Tween20, 3 mM DTT, 5 nM NCP, FRET: 15 mM Tris pH 7.5, 1 mM EDTA, 0.00625% Tween20, 25 nM NCP, NMR: …

Sequence of CHD4 PHD1/2 (aa 361–503) (Q14839 361-503): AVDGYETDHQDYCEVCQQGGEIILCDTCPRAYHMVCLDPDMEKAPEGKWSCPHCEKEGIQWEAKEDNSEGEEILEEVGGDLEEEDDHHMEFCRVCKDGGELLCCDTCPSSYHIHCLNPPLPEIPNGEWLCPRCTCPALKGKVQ

Kd [1]: 630 nM
Substance: CHD4 PHD1/2 (aa 361–503) (from UniProt Q14839 361-503) (domain or fragment)

Substance: Cy3-Cy5-NCP, 601 L with LexA site
K half [2]: 32 µM
K half [3]: 1400 nM

Substance: Fluorescein-NCP, 601 L with LexA site
Kd [4]: 630 nM
